According to patent US7087215B2 (priority 1998, dated 2006):

Columns and labels:
[1] = Plasma insulin levels by RIA method after injection or mouth spray in diabetic volunteers; format: in vivo, human
Experimental: (§1) Ten diabetic volunteers were asked to fast overnight and not have any breakfast prior to dosing. On the first day, the volunteers were given 10 units insulin by injection (regular fast acting insulin, obtained from Eli Lilly). On the second day, the volunteers were given 60 units insulin of this example (10 puffs of 6 units each) into the mouth, without inhalation. Plasma insulin levels were measured at intervals by the RIA method for 3 hours. Blood glucose levels were also monitored at intervals using Bayer's glucometer Elite for 3 hours.
(§2) Tests were also conducted with 40 units of spray at 10 puffs each, and compared to 10 units injected by measuring plasma levels and glucose levels as above. The results are shown in Table 7 (plasma) and 8 (glucose).
(§3) Ten diabetic volunteers were asked to fast overnight and not have any breakfast prior to dosing. On the first day, the volunteers were given 10 units insulin by injection. On the second day, the volunteers were given 60 units insulin of this example (10 puffs of 6 units each) into the mouth, without inhalation. Plasma insulin levels were measured at intervals by the RIA method for 3 hours. Blood glucose levels were also monitored at intervals using Bayer's glucometer Elite for 3 hours.
(§4) On the first day, each patient had 7 units regular fast acting insulin, obtained from Eli Lilly, administered by injection. On the second day, each patient was given 70 units of the insulin formulation of this Example (7 puffs of 10 unit each) into the mouth, without inhalation. Blood samples were collected and plasma glucose levels were measured at intervals using Bayer's glucometer Elite for 3 hours. Insulin levels were also monitored at intervals by the RIA method for 3 hours.

[2] = test system: blood glucose levels; experiment: Blood glucose levels by Bayer's glucometer Elite after injection or mouth spray in fasted diabetic volunteers; format: in vivo, human
Experimental: as §1, §2, §3, §4

[3] = time 0 min, insulin 10 units by injection, Example 2 60 units by mouth spray, average of ten fasted diabetic volunteers
[4] = time 0 min, insulin 10 units by injection, Example 3 60 units by mouth spray, average of ten fasted diabetic volunteers
[5] = time 0 min, insulin 10 units injected, Example 2 40 units of spray, measured as above
[6] = time 15 min, insulin 10 units by injection, Example 2 60 units by mouth spray, average of ten fasted diabetic volunteers
[7] = time 15 min, insulin 10 units by injection, Example 3 60 units by mouth spray, average of ten fasted diabetic volunteers
[8] = time 15 min, insulin 10 units injected, Example 2 40 units of spray, measured as above
[9] = time 30 min, insulin 10 units by injection, Example 2 60 units by mouth spray, average of ten fasted diabetic volunteers
[10] = time 30 min, insulin 10 units by injection, Example 3 60 units by mouth spray, average of ten fasted diabetic volunteers
[11] = time 30 min, insulin 10 units injected, Example 2 40 units of spray, measured as above
[12] = time 45 min, insulin 10 units by injection, Example 2 60 units by mouth spray, average of ten fasted diabetic volunteers
[13] = time 45 min, insulin 10 units by injection, Example 3 60 units by mouth spray, average of ten fasted diabetic volunteers
[14] = time 60 min, insulin 10 units by injection, Example 2 60 units by mouth spray, average of ten fasted diabetic volunteers
[15] = time 60 min, insulin 10 units by injection, Example 3 60 units by mouth spray, average of ten fasted diabetic volunteers
[16] = time 60 min, insulin 10 units injected, Example 2 40 units of spray, measured as above
[17] = time 90 min, insulin 10 units by injection, Example 2 60 units by mouth spray, average of ten fasted diabetic volunteers
[18] = time 90 min, insulin 10 units by injection, Example 3 60 units by mouth spray, average of ten fasted diabetic volunteers
[19] = time 90 min, insulin 10 units injected, Example 2 40 units of spray, measured as above
[20] = time 120 min, insulin 10 units by injection, Example 2 60 units by mouth spray, average of ten fasted diabetic volunteers
[21] = time 120 min, insulin 10 units by injection, Example 3 60 units by mouth spray, average of ten fasted diabetic volunteers
[22] = time 120 min, insulin 10 units injected, Example 2 40 units of spray, measured as above
[23] = time 150 min, insulin 10 units by injection, Example 2 60 units by mouth spray, average of ten fasted diabetic volunteers
[24] = time 150 min, insulin 10 units by injection, Example 3 60 units by mouth spray, average of ten fasted diabetic volunteers
[25] = time 150 min, insulin 10 units injected, Example 2 40 units of spray, measured as above
[26] = time 180 min, insulin 10 units by injection, Example 2 60 units by mouth spray, average of ten fasted diabetic volunteers
[27] = time 180 min, insulin 10 units by injection, Example 3 60 units by mouth spray, average of ten fasted diabetic volunteers
[28] = time 180 min, insulin 10 units injected, Example 2 40 units of spray, measured as above

Substance: insulin
- Plasma insulin level [1, 3]: 10 micromoles per ml
- Plasma insulin level [1, 4]: 9 micromoles per ml
- Plasma insulin level [1, 5]: 9 micromoles per ml
- Plasma insulin level [1, 6]: 9.1 micromoles per ml
- Plasma insulin level [1, 7]: 9.1 micromoles per ml
- Plasma insulin level [1, 8]: 9 micromoles per ml
- Plasma insulin level [1, 9]: 11 micromoles per ml
- Plasma insulin level [1, 10]: 14 micromoles per ml
- Plasma insulin level [1, 11]: 13 micromoles per ml
- Plasma insulin level [1, 12]: 16 micromoles per ml
- Plasma insulin level [1, 13]: 20 micromoles per ml
- Plasma insulin level ([1]; time 45 min, insulin 10 units injected, Example 2 40 units of spray, measured as above): 19 micromoles per ml
- Plasma insulin level [1, 14]: 31 micromoles per ml
- Plasma insulin level [1, 15]: 40 micromoles per ml
- Plasma insulin level [1, 16]: 34 micromoles per ml
- Plasma insulin level [1, 17]: 45 micromoles per ml
- Plasma insulin level [1, 18]: 48 micromoles per ml
- Plasma insulin level [1, 19]: 45 micromoles per ml
- Plasma insulin level [1, 20]: 32 micromoles per ml
- Plasma insulin level [1, 21]: 39 micromoles per ml
- Plasma insulin level [1, 22]: 42 micromoles per ml
- Plasma insulin level [1, 23]: 25 micromoles per ml
- Plasma insulin level [1, 24]: 34 micromoles per ml
- Plasma insulin level [1, 25]: 35 micromoles per ml
- Plasma insulin level [1, 26]: 20 micromoles per ml
- Plasma insulin level [1, 27]: 27 micromoles per ml
- Plasma insulin level [1, 28]: 24 micromoles per ml
- Blood glucose level [2, 3]: 6.1 millimoles per liter
- Blood glucose level [2, 4]: 6.6 millimoles per liter
- Blood glucose level [2, 5]: 5.8 millimoles per liter
- Blood glucose level [2, 6]: 6.0 millimoles per liter
- Blood glucose level [2, 7]: 6.5 millimoles per liter
- Blood glucose level [2, 8]: 6.0 millimoles per liter
- Blood glucose level [2, 9]: 5.9 millimoles per liter
- Blood glucose level [2, 10]: 6.1 millimoles per liter
- Blood glucose level [2, 11]: 5.9 millimoles per liter
- Blood glucose level [2, 12]: 5.5 millimoles per liter
- Blood glucose level [2, 13]: 5.5 millimoles per liter
- Blood glucose level [2, 14]: 5.1 millimoles per liter
- Blood glucose level [2, 15]: 4.9 millimoles per liter
- Blood glucose level [2, 16]: 5.5 millimoles per liter
- Blood glucose level [2, 17]: 4.5 millimoles per liter
- Blood glucose level [2, 18]: 4.5 millimoles per liter
- Blood glucose level [2, 19]: 5.0 millimoles per liter
- Blood glucose level [2, 20]: 3.8 millimoles per liter
- Blood glucose level [2, 21]: 3.8 millimoles per liter
- Blood glucose level [2, 22]: 4.5 millimoles per liter
- Blood glucose level [2, 23]: 4.2 millimoles per liter
- Blood glucose level [2, 24]: 3.5 millimoles per liter
- Blood glucose level [2, 25]: 4.1 millimoles per liter
- Blood glucose level [2, 26]: 4.4 millimoles per liter
- Blood glucose level [2, 27]: 4.4 millimoles per liter
- Blood glucose level [2, 28]: 3.9 millimoles per liter
